According to patent WO2016155745A1 (dated 2016):

Legend:
[1] = target: full-length human recombinant PAD4 (human, UniProt Q9UM07 1-663); experiment: ELISA, purified mAb 1:100 on PAD-coated plates (Fig. 2)
[2] = target: T1, full-length human recombinant PAD3 (human, UniProt Q9ULW8 1-664); experiment: as above
T1 construct: mature; Full-length recombinant protein coated on plates at 100 ng/mL
T1 sequence (looked up): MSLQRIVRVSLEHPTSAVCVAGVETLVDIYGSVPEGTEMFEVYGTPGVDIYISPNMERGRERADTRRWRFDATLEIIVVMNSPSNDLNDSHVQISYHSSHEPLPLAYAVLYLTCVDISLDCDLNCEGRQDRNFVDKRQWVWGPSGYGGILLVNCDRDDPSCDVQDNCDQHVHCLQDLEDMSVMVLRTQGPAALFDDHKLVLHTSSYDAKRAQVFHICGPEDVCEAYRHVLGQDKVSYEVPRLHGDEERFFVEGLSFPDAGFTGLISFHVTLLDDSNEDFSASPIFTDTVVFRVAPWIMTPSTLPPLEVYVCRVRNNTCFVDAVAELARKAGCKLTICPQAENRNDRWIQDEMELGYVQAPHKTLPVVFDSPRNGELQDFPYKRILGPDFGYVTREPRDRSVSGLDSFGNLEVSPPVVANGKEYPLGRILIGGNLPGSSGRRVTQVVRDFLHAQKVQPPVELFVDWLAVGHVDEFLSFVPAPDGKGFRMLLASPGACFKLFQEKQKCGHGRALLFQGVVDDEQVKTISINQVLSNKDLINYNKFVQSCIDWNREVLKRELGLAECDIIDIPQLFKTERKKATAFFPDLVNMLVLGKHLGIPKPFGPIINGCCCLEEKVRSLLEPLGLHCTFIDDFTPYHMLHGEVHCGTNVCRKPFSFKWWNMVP

[3] = target: T2, full-length human recombinant PAD2 (human, UniProt Q9Y2J8 1-665); experiment: as above
T2 construct: also called rhPAD2; recombinant human PAD2

murine recombinant PAD2 = target: T3, murine recombinant PAD2 (mouse, UniProt Q08642 1-673, limits assumed); experiment: ELISA, culture supernatant 1:20 on mPAD2-coated plates (Fig. 3)
T3 construct: also called mPAD2; murine PAD2

[4] = target: T2, full-length human recombinant PAD2; experiment: ELISA, culture supernatant 1:20 on PAD2-coated plates (Fig. 3)

Measured: binding result

full-length human recombinant PAD4, sequence (Q9UM07 whole entry): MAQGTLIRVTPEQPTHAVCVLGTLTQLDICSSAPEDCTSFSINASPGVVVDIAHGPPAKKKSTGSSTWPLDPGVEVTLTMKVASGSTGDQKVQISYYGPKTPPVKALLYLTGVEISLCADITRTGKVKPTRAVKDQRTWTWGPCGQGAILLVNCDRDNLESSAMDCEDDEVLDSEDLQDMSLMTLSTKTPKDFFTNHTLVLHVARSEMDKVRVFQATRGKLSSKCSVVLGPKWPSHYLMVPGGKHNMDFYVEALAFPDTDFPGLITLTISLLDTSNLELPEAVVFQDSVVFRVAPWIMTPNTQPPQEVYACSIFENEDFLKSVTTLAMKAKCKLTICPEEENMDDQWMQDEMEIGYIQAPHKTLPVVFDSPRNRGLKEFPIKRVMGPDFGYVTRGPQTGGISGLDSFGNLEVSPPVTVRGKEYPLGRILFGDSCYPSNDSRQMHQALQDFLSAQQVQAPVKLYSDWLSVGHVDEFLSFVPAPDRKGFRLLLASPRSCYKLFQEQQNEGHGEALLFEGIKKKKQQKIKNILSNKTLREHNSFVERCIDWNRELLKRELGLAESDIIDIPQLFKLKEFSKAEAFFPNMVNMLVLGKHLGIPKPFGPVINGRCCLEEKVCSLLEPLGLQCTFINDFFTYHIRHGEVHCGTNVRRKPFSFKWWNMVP
T3 sequence (Q08642 whole entry): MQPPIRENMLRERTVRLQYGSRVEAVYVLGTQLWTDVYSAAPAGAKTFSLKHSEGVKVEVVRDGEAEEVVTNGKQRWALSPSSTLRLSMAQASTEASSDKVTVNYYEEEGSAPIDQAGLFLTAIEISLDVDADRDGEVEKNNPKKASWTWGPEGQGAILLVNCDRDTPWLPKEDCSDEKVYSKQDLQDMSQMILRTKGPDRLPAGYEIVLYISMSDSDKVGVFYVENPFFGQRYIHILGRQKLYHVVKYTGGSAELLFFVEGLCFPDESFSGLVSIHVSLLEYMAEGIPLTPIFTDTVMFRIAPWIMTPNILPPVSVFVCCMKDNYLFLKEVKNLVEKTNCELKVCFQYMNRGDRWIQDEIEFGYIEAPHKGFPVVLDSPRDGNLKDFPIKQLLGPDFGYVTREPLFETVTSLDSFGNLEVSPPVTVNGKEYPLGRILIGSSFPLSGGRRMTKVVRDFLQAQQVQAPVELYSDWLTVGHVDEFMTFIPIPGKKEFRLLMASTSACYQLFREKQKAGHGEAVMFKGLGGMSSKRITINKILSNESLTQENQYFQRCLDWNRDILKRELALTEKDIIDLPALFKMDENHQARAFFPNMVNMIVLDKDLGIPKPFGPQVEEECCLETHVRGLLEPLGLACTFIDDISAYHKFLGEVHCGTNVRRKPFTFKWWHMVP
T2 sequence (Q9Y2J8 whole entry): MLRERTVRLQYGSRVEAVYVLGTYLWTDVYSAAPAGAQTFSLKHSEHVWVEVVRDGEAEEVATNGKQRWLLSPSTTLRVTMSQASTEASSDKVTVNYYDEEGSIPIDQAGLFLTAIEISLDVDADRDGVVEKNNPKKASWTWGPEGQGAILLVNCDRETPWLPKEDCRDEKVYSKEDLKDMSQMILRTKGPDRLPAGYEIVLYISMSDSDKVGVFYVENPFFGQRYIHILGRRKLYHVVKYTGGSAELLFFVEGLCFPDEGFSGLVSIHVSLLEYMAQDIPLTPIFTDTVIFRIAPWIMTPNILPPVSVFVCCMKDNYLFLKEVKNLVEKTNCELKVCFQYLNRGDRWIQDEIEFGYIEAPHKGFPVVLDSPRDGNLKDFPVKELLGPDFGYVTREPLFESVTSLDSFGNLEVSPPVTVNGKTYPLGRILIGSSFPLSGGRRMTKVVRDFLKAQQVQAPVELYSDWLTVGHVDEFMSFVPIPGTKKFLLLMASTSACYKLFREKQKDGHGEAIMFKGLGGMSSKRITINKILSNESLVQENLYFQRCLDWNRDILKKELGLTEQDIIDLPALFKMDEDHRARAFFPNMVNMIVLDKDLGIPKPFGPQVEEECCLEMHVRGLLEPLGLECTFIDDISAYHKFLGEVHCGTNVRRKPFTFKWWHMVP

B1: mSol4 (antibody, V domains shown)
VH: LEESGGDLVKLGGSLKLSCAASGFTFSSYYMSWVRQTPEKRLELVAAIHSDGGNTYYPDTVKGRFTISRDNAKNTLYLQMSSLKSEDTALYYCARHSYYGSSYDYWGQGTTLTVSS
VL: DIVLTQSPLSLPVSLGDQASISCESSQSLVHSNGITYLHWYLQKPGQSPKLLIYKVSHRFSGVPDRFSGSGSGTDFTLKISRVEAVDLGVYFCSQSTHVPFTFGSGTKLEIKR
notes: also called cross-reactive anti-PAD antibody mSol4
not listed: [4]
binds: all other assays above

B2: mSol3 (antibody, V domains shown)
VH: EVQLEESGADLVKPGASVKLSCKASGYTFTSYWMHWVKQRPGQGLEWIGEIIPSNGHTNYNEKFKSKATLTVDKSSSTAYMQLSSLTPEDSAVYYCARGRDFFYGFGDYWGQGTTLTVSS
VL: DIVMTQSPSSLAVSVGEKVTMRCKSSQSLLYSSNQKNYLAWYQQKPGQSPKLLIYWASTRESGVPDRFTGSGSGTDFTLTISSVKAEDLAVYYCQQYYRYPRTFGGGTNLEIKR
notes: also called cross-reactive anti-PAD antibody mSol3
not listed: [3]
binds: all other assays above
